From patent EP2014310A2 (Dyax Corporation, dated 2009) come the findings set out here.

Assay in all cases: phage binding screen on KDR-Fc; class legend in paragraph 246
Assay [1] addresses T1, human KDR-Fc fusion (R&D Systems #357-KD-050) (human, UniProt P35968 20-764).
T1 construct: bought

The target of assay [2] is T1, human KDR-Fc fusion (R&D Systems …). This is another data set of the same source.
Assay [3] has the same target. This is another data set of the same source.

Read-outs that look alike come from different tables or passages of the source. Ends that are not written are not given here.

T1 sequence (P35968 20-764): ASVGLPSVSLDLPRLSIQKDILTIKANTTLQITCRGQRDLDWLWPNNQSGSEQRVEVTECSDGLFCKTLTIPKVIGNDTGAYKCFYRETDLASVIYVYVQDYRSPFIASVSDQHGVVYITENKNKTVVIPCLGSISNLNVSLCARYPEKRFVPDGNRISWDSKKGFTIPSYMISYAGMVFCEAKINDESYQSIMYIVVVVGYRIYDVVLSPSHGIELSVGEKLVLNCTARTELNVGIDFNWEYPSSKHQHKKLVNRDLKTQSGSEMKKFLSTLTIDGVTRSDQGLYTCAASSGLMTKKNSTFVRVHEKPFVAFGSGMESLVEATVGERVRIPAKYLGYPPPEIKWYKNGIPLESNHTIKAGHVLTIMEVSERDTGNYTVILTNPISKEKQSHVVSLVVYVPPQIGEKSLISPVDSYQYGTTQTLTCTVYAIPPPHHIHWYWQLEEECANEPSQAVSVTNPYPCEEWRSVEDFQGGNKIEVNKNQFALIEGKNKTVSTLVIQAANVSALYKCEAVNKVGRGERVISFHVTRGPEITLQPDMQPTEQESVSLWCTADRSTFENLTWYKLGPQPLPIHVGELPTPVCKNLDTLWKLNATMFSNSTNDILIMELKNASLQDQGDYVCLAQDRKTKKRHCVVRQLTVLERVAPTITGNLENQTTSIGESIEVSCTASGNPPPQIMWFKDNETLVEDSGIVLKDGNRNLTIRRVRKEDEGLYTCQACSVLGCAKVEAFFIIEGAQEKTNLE

Consider PGHCEYIWIDEQPWCVRL [phage isolate PGHCEYIWIDEQPWCVRL], for which, in assay [1], the binding result is given as “binds”.

In the case of YSDCLFQLWKGSVCPPS [phage isolate YSDCLFQLWKGSVCPPS], in assay [1], the binding result was “binds”.

LDNCIWNVWKGVQDCEYS [phage isolate LDNCIWNVWKGVQDCEYS]: the binding result in assay [1] is “binds”.

In the case of NWECGWSNMFQKEFCARP [phage isolate NWECGWSNMFQKEFCARP], the binding result in assay [1] is listed as “binds”.

For PPLCYFVGTQEWHHCNPF [phage isolate PPLCYFVGTQEWHHCNPF], the binding result in assay [1] is reported as “binds”.

On to QVQYQFFLGTPRYEQWDLDK [phage isolate QVQYQFFLGTPRYEQWDLDK], for which the binding result in assay [2] is “binds”.

As for QVQYQFILGTPRYEQWDPDK [phage isolate QVQYQFILGTPRYEQWDPDK], in assay [2], the binding result is recorded as “binds”.

As to SRVCWEYSWGGQICLGY [phage isolate SRVCWEYSWGGQICLGY], in assay [1], the binding result is “binds”.

As to WVTKQQFIDTYGRKEWTILF [phage isolate WVTKQQFIDTYGRKEWTILF], the binding result in assay [2] was “binds”.

As for LSLCYNDMHGWWEHCQWY [phage isolate LSLCYNDMHGWWEHCQWY], in assay [1], the binding result is “binds”.

Consider DNWCEIVVEKGQWFCYGS [phage isolate DNWCEIVVEKGQWFCYGS], for which, in assay [1], the binding result was “binds”.

For the molecule RSWYLGPPYYEEWDPIPN [phage isolate RSWYLGPPYYEEWDPIPN], the binding result in assay [2] is “binds”.

With SRVCWEYSWGGEVCYRV [phage isolate SRVCWEYSWGGEVCYRV], in assay [1], the binding result is “binds”.

With SDLCYNQSGWWELCYFD [phage isolate SDLCYNQSGWWELCYFD], in assay [1], the binding result was “binds”.

Take PPFCIYQEPSGQWWCYDH [phage isolate PPFCIYQEPSGQWWCYDH]: the binding result in assay [1] is given as “binds”.

With DSWCELEHQSGIWRCDFW [phage isolate DSWCELEHQSGIWRCDFW], the binding result in assay [1] was “binds”.

Regarding GWACAKWPWGGEICQPS [phage isolate GWACAKWPWGGEICQPS], in assay [1], the binding result is “binds”.

EPEGYAYWEVITLYHEEDGD [phage isolate EPEGYAYWEVITLYHEEDGD]: the binding result in assay [2] is listed as “binds”.

On to WRICWESSWGGEVCIGH [phage isolate WRICWESSWGGEVCIGH], for which the binding result in assay [1] is “binds”.

As for MPPGFSYWEQVVLHDDAQVL [phage isolate MPPGFSYWEQVVLHDDAQVL], the binding result in assay [2] was “binds”.

Regarding FGECWEYFWGGEFCLRV [phage isolate FGECWEYFWGGEFCLRV], the binding result in assay [1] is given as “binds”.

For RGDYQEQYWHQQLVEQLKLL [phage isolate RGDYQEQYWHQQLVEQLKLL], the binding result in assay [2] is on record as “binds”.

For the molecule YPGCYETSLSGVWFCADG [phage isolate YPGCYETSLSGVWFCADG], the binding result in assay [1] is “binds”.

With DWACDEYWSAYSVLCKHP [phage isolate DWACDEYWSAYSVLCKHP], the binding result in assay [1] is given as “binds”.

On to PDTCTMWGDSGRWYCFPA [phage isolate PDTCTMWGDSGRWYCFPA], for which the binding result in assay [1] is “binds”.

On to YSHCIETSMENIWFCDFD [phage isolate YSHCIETSMENIWFCDFD], for which the binding result in assay [1] was “binds”.

Turning to PFWCKFQQSKAMFPCSWF [phage isolate PFWCKFQQSKAMFPCSWF], the binding result in assay [1] was “binds”.

In the case of NSECGCPNMLHKEFCARH [phage isolate NSECGCPNMLHKEFCARH], the binding result in assay [1] is on record as “binds”.

Regarding WDDCIWHMWLKKKDCNSG [phage isolate WDDCIWHMWLKKKDCNSG], in assay [1], the binding result is “binds”.

As for SRVCWEDSWGGEVCFRY [phage isolate SRVCWEDSWGGEVCFRY], the binding result in assay [1] was “binds”.

For the molecule GDYVYWEIIELTGATDHTPP [phage isolate GDYVYWEIIELTGATDHTPP], in assay [2], the binding result is given as “binds”.

With FSVCWEYSWGGEVCLRQ [phage isolate FSVCWEYSWGGEVCLRQ], the binding result in assay [1] is recorded as “binds”.

As to ASTCVFHDHPYFPMCQDN [phage isolate ASTCVFHDHPYFPMCQDN], in assay [1], the binding result is given as “binds”.

In the case of PVTDWTPHHPKAPDVWLFYT [phage isolate PVTDWTPHHPKAPDVWLFYT], the binding result in assay [2] was “binds”.

AGWCEYVAPQGAWRCFHN [phage isolate AGWCEYVAPQGAWRCFHN]: the binding result in assay [1] was “binds”.

For the molecule GWCQMDAQGIWSCWAD [phage isolate GWCQMDAQGIWSCWAD], the binding result in assay [1] is given as “binds”.

DHMCRSPDYQDHVFCMYW [phage isolate DHMCRSPDYQDHVFCMYW]: the binding result in assay [1] was “binds”.

On to GSWCEMRQDVGKWNCFSD [phage isolate GSWCEMRQDVGKWNCFSD], for which the binding result in assay [1] is given as “binds”.

Consider PGWCDFSPQLGQWMCDWF [phage isolate PGWCDFSPQLGQWMCDWF], for which the binding result in assay [1] was “binds”.

With KKEDAQQWYWTDYVPSYLYR [phage isolate KKEDAQQWYWTDYVPSYLYR], in assay [2], the binding result is reported as “binds”.

Regarding PRLGDDFEEAPPLEWWWAHF [phage isolate PRLGDDFEEAPPLEWWWAHF], the binding result in assay [2] was “binds”.

Regarding PSNSWAAVWEDDMQRLMRQH [phage isolate PSNSWAAVWEDDMQRLMRQH], in assay [2], the binding result is given as “binds”.

Regarding GEQCSNLAVACCST [phage isolate GEQCSNLAVACCST], the binding result in assay [3] is listed as “binds”.

For the molecule LGYCMYDYENRGWTCYPP (not fully specified; cysteine pairing not given here) [phage isolate LGYCMYDYENRGWTCYPP], the binding result in assay [1] is listed as “binds”.

For YGVCWEYSWGGEVCLRF [phage isolate YGVCWEYSWGGEVCLRF], the binding result in assay [1] is given as “binds”.

As to DRWCMLDQEKGWWLCGPP [phage isolate DRWCMLDQEKGWWLCGPP], in assay [1], the binding result is on record as “binds”.

Take WLYDYWDRQQKSEEFKFWSQ [phage isolate WLYDYWDRQQKSEEFKFWSQ]: the binding result in assay [2] is recorded as “binds”.

Take GGWCQLVDHSWWWCGDS [phage isolate GGWCQLVDHSWWWCGDS]: the binding result in assay [1] is reported as “binds”.

Turning to NGSCWYDFGWETEICFHN [phage isolate NGSCWYDFGWETEICFHN], in assay [1], the binding result was “binds”.

YPWCHELSDSVTRFCVPW [phage isolate YPWCHELSDSVTRFCVPW]: in assay [1], the binding result was “binds”.

Regarding YPWCHEHSDSVTRFCVPW [phage isolate YPWCHEHSDSVTRFCVPW], the binding result in assay [1] is “binds”.

With WYYDWFHNQRKPPSDWIDNL [phage isolate WYYDWFHNQRKPPSDWIDNL], the binding result in assay [2] was “binds”.

Take SGYCEFESDTGRWFCSSW [phage isolate SGYCEFESDTGRWFCSSW]: the binding result in assay [1] is on record as “binds”.

With PAQCWESNYQGIFFCDNP [phage isolate PAQCWESNYQGIFFCDNP], the binding result in assay [1] is “binds”.

On to SSVCFEYSWGGEVCFRY [phage isolate SSVCFEYSWGGEVCFRY], for which the binding result in assay [1] was “binds”.

Consider YYQCQRYWDGKTWWCEYN [phage isolate YYQCQRYWDGKTWWCEYN], for which, in assay [1], the binding result is “binds”.

With AFPRFGGDDYWIQQYLRYTD [phage isolate AFPRFGGDDYWIQQYLRYTD], the binding result in assay [2] is “binds”.

For the molecule AFPRFGGDDYWIQQYLRYTF [phage isolate AFPRFGGDDYWIQQYLRYTF], the binding result in assay [2] is on record as “binds”.

With NWKCEYTQGYDYTECVYL [phage isolate NWKCEYTQGYDYTECVYL], the binding result in assay [1] was “binds”.

On to WWECKREEYRNTTWCAWA [phage isolate WWECKREEYRNTTWCAWA], for which the binding result in assay [1] is listed as “binds”.
